We go through three molecules from patent publication US20220220508, “ENGINEERED CASX SYSTEMS” (Scribe Therapeutics Inc., published 2022).

Series [1] deals with CasX 438 (Planctomycetes). The series is described as follows: cleavage_in_vitro; kcleave; TTC PAM. Particulars: tags: N-terminal SV40 NLS, C-terminal NLS, TEV site and twin Strep tag; label: fluorescent. Here is the method:
(§1) In vitro cleavage assays were performed essentially as described in Example 19, using CasX 2 (SED ID NO:2), CasX 119, and CasX 438 complexed with single guide 174 with spacer 7.37 targeted against B2M. Fluorescently labeled dsDNA targets that would be complementary with a 7.37 spacer and either a ITC, CTC, CTC, or ATC PAM were used (The DNA sequences used to generate each dsDNA substrate are shown in Table 29. The PAM sequences for each are bolded. TS—target strand. NTS—Non-target strand). Target DNA was incubated with a 20-fold excess of the indicated RNP and the amount of cleaved target was determined at the indicated. time points. The monophasic fit of the combined replicates is shown. During the assay, samples were taken at 0.25, 0.5, 1, 2, 5, 10, 30, and 60 minutes. Gels were imaged with an Amersham Typhoon and quantified using the IQTL 8,2 software. Apparent first-order rate constants for non-target strand cleavage (kcleave) were determined for each Casx:sgRNA complex on each target. Rate constants for targets with non-TTC PAM were compared to the TIC PAM target to determine whether the relative preference for each PAM was altered for a given CasX variant. The results are shown in FIG. 73 (the monophasic fit of the combined replicates is shown) and Table 30. […]

The target of series [2] is CasX 119 (L379R+A708K+[P793]) (Planctomycetes). The series can be described thus: cleavage_in_vitro; kcleave; TTC PAM. Particulars: tags: N-terminal SV40 NLS, C-terminal NLS, TEV site and twin Strep tag; label: fluorescent. How it is done:
as §1

Series [3] deals with T1, CasX 491.
T1 chain: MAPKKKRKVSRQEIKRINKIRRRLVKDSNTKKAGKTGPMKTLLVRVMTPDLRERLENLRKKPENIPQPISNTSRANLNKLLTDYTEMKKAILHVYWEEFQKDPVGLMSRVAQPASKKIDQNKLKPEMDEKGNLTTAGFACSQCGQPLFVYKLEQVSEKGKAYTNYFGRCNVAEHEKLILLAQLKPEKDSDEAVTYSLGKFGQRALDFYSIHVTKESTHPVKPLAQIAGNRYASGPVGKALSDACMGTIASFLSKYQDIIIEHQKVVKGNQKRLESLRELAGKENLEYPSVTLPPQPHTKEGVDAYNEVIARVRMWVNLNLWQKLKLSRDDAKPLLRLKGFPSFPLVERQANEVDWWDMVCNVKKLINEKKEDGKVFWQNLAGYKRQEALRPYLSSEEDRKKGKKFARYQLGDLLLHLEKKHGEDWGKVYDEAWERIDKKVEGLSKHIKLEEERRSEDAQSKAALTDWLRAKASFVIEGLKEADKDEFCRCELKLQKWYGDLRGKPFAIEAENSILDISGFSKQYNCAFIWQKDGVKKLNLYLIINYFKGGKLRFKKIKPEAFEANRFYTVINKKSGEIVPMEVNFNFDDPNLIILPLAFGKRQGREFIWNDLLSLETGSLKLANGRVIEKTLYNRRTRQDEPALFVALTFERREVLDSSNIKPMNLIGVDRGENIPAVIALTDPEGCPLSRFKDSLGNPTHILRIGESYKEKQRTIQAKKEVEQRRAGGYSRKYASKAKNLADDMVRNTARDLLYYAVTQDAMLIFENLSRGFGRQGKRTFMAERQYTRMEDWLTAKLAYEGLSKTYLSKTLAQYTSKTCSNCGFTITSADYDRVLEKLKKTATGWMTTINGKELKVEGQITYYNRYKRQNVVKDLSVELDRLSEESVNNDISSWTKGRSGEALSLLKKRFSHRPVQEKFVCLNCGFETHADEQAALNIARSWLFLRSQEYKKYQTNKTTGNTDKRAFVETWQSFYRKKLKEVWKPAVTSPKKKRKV
The series is described as follows: cell_activity; lentiviral iGFP editing; TTC PAM.

Series [4] deals with T2, CasX 488.
T2 chain: T1 chain with L410F, V669I
The series is described as follows: cell_activity; lentiviral iGFP editing; TTC PAM.

Series [5] concerns the target T3, CasX 438 (in cells) (Planctomycetes).
T3 chain: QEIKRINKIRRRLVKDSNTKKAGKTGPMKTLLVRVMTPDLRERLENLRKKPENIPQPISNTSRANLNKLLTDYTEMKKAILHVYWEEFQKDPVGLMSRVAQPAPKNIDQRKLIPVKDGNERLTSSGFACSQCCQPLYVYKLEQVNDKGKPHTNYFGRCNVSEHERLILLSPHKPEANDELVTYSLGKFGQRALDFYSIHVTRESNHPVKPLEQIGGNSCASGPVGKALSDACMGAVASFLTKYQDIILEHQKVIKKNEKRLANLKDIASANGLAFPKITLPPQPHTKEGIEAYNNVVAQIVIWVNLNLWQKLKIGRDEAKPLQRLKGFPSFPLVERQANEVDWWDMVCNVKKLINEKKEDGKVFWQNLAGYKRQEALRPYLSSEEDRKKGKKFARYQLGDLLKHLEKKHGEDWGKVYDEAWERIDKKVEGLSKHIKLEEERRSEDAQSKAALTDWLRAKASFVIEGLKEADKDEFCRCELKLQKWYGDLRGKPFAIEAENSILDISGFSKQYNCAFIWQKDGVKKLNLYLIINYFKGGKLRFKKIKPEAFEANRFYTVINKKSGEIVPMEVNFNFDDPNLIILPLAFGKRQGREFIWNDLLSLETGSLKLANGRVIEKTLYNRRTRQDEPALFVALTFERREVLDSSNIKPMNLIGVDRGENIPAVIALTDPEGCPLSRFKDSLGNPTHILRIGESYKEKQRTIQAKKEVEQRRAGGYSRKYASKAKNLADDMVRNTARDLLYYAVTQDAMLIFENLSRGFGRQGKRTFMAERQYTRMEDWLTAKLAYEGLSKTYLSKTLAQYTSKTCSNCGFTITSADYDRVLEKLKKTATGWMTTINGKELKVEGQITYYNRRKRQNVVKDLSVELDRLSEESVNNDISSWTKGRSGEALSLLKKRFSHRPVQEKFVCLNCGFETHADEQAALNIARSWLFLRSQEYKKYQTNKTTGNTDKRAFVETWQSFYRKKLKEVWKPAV
The series can be described thus: cell_activity; lentiviral iGFP editing; TTC PAM.

Numbering of substitutions follows the chain as printed.

Sequence of CasX 119 (L379R+A708K+[P793]) (Planctomycetes) (chain, as listed by the source L379R A708K L379R A708K): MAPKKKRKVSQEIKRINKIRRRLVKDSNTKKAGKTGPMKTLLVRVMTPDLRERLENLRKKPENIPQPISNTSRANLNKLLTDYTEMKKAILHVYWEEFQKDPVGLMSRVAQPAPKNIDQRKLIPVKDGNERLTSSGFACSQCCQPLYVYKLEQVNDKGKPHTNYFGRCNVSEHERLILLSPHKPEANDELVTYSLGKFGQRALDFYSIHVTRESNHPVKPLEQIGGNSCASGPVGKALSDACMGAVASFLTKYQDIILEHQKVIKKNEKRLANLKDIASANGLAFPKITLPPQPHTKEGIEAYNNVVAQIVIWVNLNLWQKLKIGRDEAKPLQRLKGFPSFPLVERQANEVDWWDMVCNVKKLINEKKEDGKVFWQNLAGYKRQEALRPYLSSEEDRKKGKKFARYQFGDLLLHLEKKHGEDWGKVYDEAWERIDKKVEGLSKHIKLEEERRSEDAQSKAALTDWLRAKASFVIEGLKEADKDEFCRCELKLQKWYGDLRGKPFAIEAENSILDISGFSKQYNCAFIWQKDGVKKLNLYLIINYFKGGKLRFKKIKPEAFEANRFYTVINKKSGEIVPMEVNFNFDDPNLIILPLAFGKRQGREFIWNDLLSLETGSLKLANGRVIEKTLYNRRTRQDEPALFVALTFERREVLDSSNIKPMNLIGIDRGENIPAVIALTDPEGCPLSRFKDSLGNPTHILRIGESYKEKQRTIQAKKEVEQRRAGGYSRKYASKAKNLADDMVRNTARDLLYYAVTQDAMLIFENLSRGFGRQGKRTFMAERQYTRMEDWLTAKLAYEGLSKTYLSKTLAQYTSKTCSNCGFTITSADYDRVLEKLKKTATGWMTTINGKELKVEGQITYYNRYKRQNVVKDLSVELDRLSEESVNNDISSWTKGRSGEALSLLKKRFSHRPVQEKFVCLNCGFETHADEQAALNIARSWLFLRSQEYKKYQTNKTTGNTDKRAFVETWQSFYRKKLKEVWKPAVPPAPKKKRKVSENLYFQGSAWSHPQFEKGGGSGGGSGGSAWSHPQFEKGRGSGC
Sequence of CasX 438 (Planctomycetes) (chain, as listed by the source): as the sequence (chain, as listed by the source L379R A708K L379R A708K) above, with F408L, L413K, I667V, Y865R counted along it

B1: sgRNA 174.7.37 ; 7.37 TTC PAM target (ssRNA ; dsDNA)
RNA: ACUGGCGCUUUUAUCUGAUUACUUUGAGAGCCAUCACCAGCGACUAUGUCGUAGUGGGUAAAGCUCCCUCUUCGGAGGGAGCAUCAAAGGGCCGAGAUGUCUCGCUCCG
DNA 1: TGAAGCTGACAGCATTCGGGCCGAGATGTCTCGCTCCGTGGCCTTAGCTGTGCTCGCGCT
DNA 2: AGCGCGAGCACAGCTAAGGCCACGGAGCGAGACATCTCGGCCCGAATGCTGTCAGCTTCA
On to B1, for which the activity in series [1] was 4.94 min⁻¹; in series [2], 8.33 min⁻¹.

B2: scaffold 174 + spacer 4.76 ; EGFP E6/4.76 target (ssRNA ; dsDNA)
RNA: ACUGGCGCUUUUAUCUGAUUACUUUGAGAGCCAUCACCAGCGACUAUGUCGUAGUGGGUAAAGCUCCCUCUUCGGAGGGAGCAUCAAAGUGUGGUCGGGGUAGCGGCUG
DNA 1: TGTGGTCGGGGTAGCGGCTG
DNA 2: CAGCCGCTACCCCGACCACA
On to B2, for which the binding signal was determined as 1.55 fold vs CasX 119 in series [3], 1.41 fold vs CasX 119 in series [4] and 1.22 fold vs CasX 119 in series [5].

B3: scaffold 174 + spacer 4.77 ; EGFP E7/4.77 target (ssRNA ; dsDNA)
RNA: ACUGGCGCUUUUAUCUGAUUACUUUGAGAGCCAUCACCAGCGACUAUGUCGUAGUGGGUAAAGCUCCCUCUUCGGAGGGAGCAUCAAAGUCAAGUCCGCCAUGCCCGAA
DNA 1: TCAAGTCCGCCATGCCCGAA
DNA 2: TTCGGGCATGGCGGACTTGA
In the case of B3, the binding signal in series [3] was 3.03 fold vs CasX 119; in series [4], 2.43 fold vs CasX 119.
